Experimental data: PMC11081498

Tests used:
[1] = biological target: Giardia lamblia virus strain GLV-CAT capsid protein (Giardia lamblia virus (strain GLV-CAT)); assay: cryo-EM structure; single-particle analysis of purified virions plunge-frozen on holey carbon grids; 300-kV Titan Krios; icosahedral symmetry imposed; atomic models of CP-A and CP-B built into the maps
[2] = biological target: Giardia lamblia virus strain GLV-HP capsid protein (Giardia lamblia virus (strain GLV-HP)); assay: as above

Substance: Giardia lamblia virus strain GLV-CAT capsid protein (natural protein)
- stoichiometry N (CP dimers (CP-A and CP-B) in the capsid) [1]: 60

Substance: Giardia lamblia virus strain GLV-HP capsid protein (natural protein)
- stoichiometry N (CP dimers (CP-A and CP-B) in the capsid) [2]: 60
